B1: FtsZ (purified, WT) [E. coli] / ZapD (purified) [E. coli] (parent)
chain 1: MQTQVLFEHPLNEKMRTWLRIEFLIQQLTVNLPIVDHAGALHFFRNVSELLDVFERGEVRTELLKELDRQQRKLQTWIGVPGVDQSRIEALIQQLKAAGSVLISAPRIGQFLREDRLIALVRQRLSIPGGCCSFDLPTLHIWLHLPQAQRDSQVETWIASLNPLTQALTMVLDLIRQSAPFRKQTSLNGFYQDNGGDADLLRLNLSLDSQLYPQISGHKSRFAIRFMPLDTENGQVPERLDFELACC
chain 2: MFEPMELTNDAVIKVIGVGGGGGNAVEHMVRERIEGVEFFAVNTDAQALRKTAVGQTIQIGSGITKGLGAGANPEVGRNAADEDRDALRAALEGADMVFIAAGMGGGTGTGAAPVVAEVAKDLGILTVAVVTKPFNFEGKKRMAFAEQGITELSKHVDSLITIPNDKLLKVLGRGISLLDAFGAANDVLKGAVQGIAELITRPGLMNVDFADVRTVMSEMGYAMMGSGVASGEDRAEEAAEMAISSPLLEDIDLSGARGVLVNITAGFDLRLDEFETVGNTIRAFASDNATVVIGTSLDPDMNDELRVTVVATGIGMDKRPEITLVTNKQVQQPVMDRYQQHGMAPLTQEQKPVAKVVNDNAPQTAKEPDYLDIPAFLRKQAD
B2: FtsZ (purified, WT) [E. coli] / itself (parent)
chain: B1 chain 2

In assay [1] the parent is B1. The assay can be described thus: co-sedimentation assay, SDS-PAGE quantification. Conditions: with ZapD (purified) [E. coli], 50 mM K-MOPS pH 6.5, 50 mM KCl, 2.5 mM MgCl2, 1 mM GTP, 3 µM BSA, read off a plot.
In assay [2] the parent is B2. Description: sedimentation (co-pelleting) assay, SDS-PAGE quantification. Conditions: with itself, 50 mM K-MOPS pH 6.5, 50 mM KCl, 2.5 mM MgCl2, 1 mM GTP, 3 µM BSA, read off a plot.

chain 2 MFEPMELTNDAVIKVIGVGGGGGNAVEHMVRERIEGVEFFAVNTDAQALRKTAVGQTIQIGSGITKGLGAGANPEVGRNAADEDRDALRAALEGADMVFIAAGMGGGTGTGAAPVVAEVAKDLGILTVAVVTKPFNFEGKKRMAFAEQGITELSKHVDSLITIPNDKLLKVLGRGISLLDAFGAANDVLKGAVQGIAELITRPGLMNVDFADVRTVMSEMGYAMMGSGVASGEDRAEEAAEMAISSPLLEDIDLSGARGVLVNITAGFDLRLDEFETVGNTIRAFASDNATVVIGTSLDPDMNDELRVTVVATGIGMDKRPEITLVTNKQVQQPVMDRYQQHGMAPLTQEQKPVAKVVNDNAPQTAKEPDYLDIPAFLRDQAD [chain 2 K380D]: the results for the response (% ZapD in pellet) in assay [1] (5 µM FtsZ with ZapD at 1:0.2) and in assay [1] (5 µM FtsZ with ZapD at 1:1) were 14 and 10, respectively.
Consider chain 2 MFEPMELTNDAVIKVIGVGGGGGNAVEHMVRERIEGVEFFAVNTDAQALRKTAVGQTIQIGSGITKGLGAGANPEVGRNAADEDRDALRAALEGADMVFIAAGMGGGTGTGAAPVVAEVAKDLGILTVAVVTKPFNFEGKKRMAFAEQGITELSKHVDSLITIPNDKLLKVLGRGISLLDAFGAANDVLKGAVQGIAELITRPGLMNVDFADVRTVMSEMGYAMMGSGVASGEDRAEEAAEMAISSPLLEDIDLSGARGVLVNITAGFDLRLDEFETVGNTIRAFASDNATVVIGTSLDPDMNDELRVTVVATGIGMDKRPEITLVTNKQVQQPVMDRYQQHGMAPLTQEQKPVAKVVNDNAPQTAKEPDYLDIPAFLRRQAR [chain 2 K380R D383R], for which the response (% ZapD in pellet) in assay [1] (5 µM FtsZ with ZapD at 1:0.2) was 16; in assay [1] (5 µM FtsZ with ZapD at 1:1), 35.
With chain 2 MFEPMELTNDAVIKVIGVGGGGGNAVEHMVRERIEGVEFFAVNTDAQALRKTAVGQTIQIGSGITKGLGAGANPEVGRNAADEDRDALRAALEGADMVFIAAGMGGGTGTGAAPVVAEVAKDLGILTVAVVTKPFNFEGKKRMAFAEQGITELSKHVDSLITIPNDKLLKVLGRGISLLDAFGAANDVLKGAVQGIAELITRPGLMNVDFADVRTVMSEMGYAMMGSGVASGEDRAEEAAEMAISSPLLEDIDLSGARGVLVNITAGFDLRLDEFETVGNTIRAFASDNATVVIGTSLDPDMNDELRVTVVATGIGMDKRPEITLVTNKQVQQPVMDRYQQHGMAPLTQEQKPVAKVVNDNAPQTAKEPDYLDIPAFLRDQAK [chain 2 K380D D383K], the response (% ZapD in pellet) in assay [1] (5 µM FtsZ with ZapD at 1:1) stood at 49.
As for chain 2 MFEPMELTNDAVIKVIGVGGGGGNAVEHMVRERIEGVEFFAVNTDAQALRKTAVGQTIQIGSGITKGLGAGANPEVGRNAADEDRDALRAALEGADMVFIAAGMGGGTGTGAAPVVAEVAKDLGILTVAVVTKPFNFEGKKRMAFAEQGITELSKHVDSLITIPNDKLLKVLGRGISLLDAFGAANDVLKGAVQGIAELITRPGLMNVDFADVRTVMSEMGYAMMGSGVASGEDRAEEAAEMAISSPLLEDIDLSGARGVLVNITAGFDLRLDEFETVGNTIRAFASDNATVVIGTSLDPDMNDELRVTVVATGIGMDKRPEITLVTNKQVQQPVMDRYQQHGMAPLTQEQKPVAKVVNDNAPQTAKEPDYLDIPAFLRQQQQ [chain 2 K380Q A382Q D383Q], the response (% ZapD in pellet) in assay [1] (5 µM FtsZ with ZapD at 1:0.2) and in assay [1] (5 µM FtsZ with ZapD at 1:1) was 42 throughout.
With chain 2 MFEPMELTNDAVIKVIGVGGGGGNAVEHMVRERIEGVEFFAVNTDAQALRKTAVGQTIQIGSGITKGLGAGANPEVGRNAADEDRDALRAALEGADMVFIAAGMGGGTGTGAAPVVAEVAKDLGILTVAVVTKPFNFEGKKRMAFAEQGITELSKHVDSLITIPNDKLLKVLGRGISLLDAFGAANDVLKGAVQGIAELITRPGLMNVDFADVRTVMSEMGYAMMGSGVASGEDRAEEAAEMAISSPLLEDIDLSGARGVLVNITAGFDLRLDEFETVGNTIRAFASDNATVVIGTSLDPDMNDELRVTVVATGIGMDKRPEITLVTNKQVQQPVMDRYQQHGMAPLTQEQKPVAKVVNDNAPQTAKEPDYLDIPAFLRKQAK [chain 2 D383K], the response (% ZapD in pellet) in assay [1] (5 µM FtsZ with ZapD at 1:0.2) came out at 71; in assay [1] (5 µM FtsZ with ZapD at 1:1), 60.
As for MFEPMELTNDAVIKVIGVGGGGGNAVEHMVRERIEGVEFFAVNTDAQALRKTAVGQTIQIGSGITKGLGAGANPEVGRNAADEDRDALRAALEGADMVFIAAGMGGGTGTGAAPVVAEVAKDLGILTVAVVTKPFNFEGKKRMAFAEQGITELSKHVDSLITIPNDKLLKVLGRGISLLDAFGAANDVLKGAVQGIAELITRPGLMNVDFADVRTVMSEMGYAMMGSGVASGEDRAEEAAEMAISSPLLEDIDLSGARGVLVNITAGFDLRLDEFETVGNTIRAFASDNATVVIGTSLDPDMNDELRVTVVATGIGMDKRPEITLVTNKQVQQPVMDRYQQHGMAPLTQEQKPVAKVVNDNAPQTAKEPDYLDIPAFLRKQAK [chain 1 D383K], the response (% FtsZ in pellet) is 45 in assay [2] (5 µM FtsZ with ZapD at 1:0.2); 66 in assay [2] (5 µM FtsZ with ZapD at 1:1); 27 in assay [2] (5 µM FtsZ, no ZapD).
The corresponding values for MFEPMELTNDAVIKVIGVGGGGGNAVEHMVRERIEGVEFFAVNTDAQALRKTAVGQTIQIGSGITKGLGAGANPEVGRNAADEDRDALRAALEGADMVFIAAGMGGGTGTGAAPVVAEVAKDLGILTVAVVTKPFNFEGKKRMAFAEQGITELSKHVDSLITIPNDKLLKVLGRGISLLDAFGAANDVLKGAVQGIAELITRPGLMNVDFADVRTVMSEMGYAMMGSGVASGEDRAEEAAEMAISSPLLEDIDLSGARGVLVNITAGFDLRLDEFETVGNTIRAFASDNATVVIGTSLDPDMNDELRVTVVATGIGMDKRPEITLVTNKQVQQPVMDRYQQHGMAPLTQEQKPVAKVVNDNAPQTAKEPDYLDIPAFLRQQQQ [chain 1 K380Q A382Q D383Q] are 43, 69 and 24.
The corresponding values for MFEPMELTNDAVIKVIGVGGGGGNAVEHMVRERIEGVEFFAVNTDAQALRKTAVGQTIQIGSGITKGLGAGANPEVGRNAADEDRDALRAALEGADMVFIAAGMGGGTGTGAAPVVAEVAKDLGILTVAVVTKPFNFEGKKRMAFAEQGITELSKHVDSLITIPNDKLLKVLGRGISLLDAFGAANDVLKGAVQGIAELITRPGLMNVDFADVRTVMSEMGYAMMGSGVASGEDRAEEAAEMAISSPLLEDIDLSGARGVLVNITAGFDLRLDEFETVGNTIRAFASDNATVVIGTSLDPDMNDELRVTVVATGIGMDKRPEITLVTNKQVQQPVMDRYQQHGMAPLTQEQKPVAKVVNDNAPQTAKEPDYLDIPAFLRDQAK [chain 1 K380D D383K] are 43, 64 and 23.
In the case of MFEPMELTNDAVIKVIGVGGGGGNAVEHMVRERIEGVEFFAVNTDAQALRKTAVGQTIQIGSGITKGLGAGANPEVGRNAADEDRDALRAALEGADMVFIAAGMGGGTGTGAAPVVAEVAKDLGILTVAVVTKPFNFEGKKRMAFAEQGITELSKHVDSLITIPNDKLLKVLGRGISLLDAFGAANDVLKGAVQGIAELITRPGLMNVDFADVRTVMSEMGYAMMGSGVASGEDRAEEAAEMAISSPLLEDIDLSGARGVLVNITAGFDLRLDEFETVGNTIRAFASDNATVVIGTSLDPDMNDELRVTVVATGIGMDKRPEITLVTNKQVQQPVMDRYQQHGMAPLTQEQKPVAKVVNDNAPQTAKEPDYLDIPAFLRDQAD [chain 1 K380D], the response (% FtsZ in pellet) is 29 in assay [2] (5 µM FtsZ with ZapD at 1:0.2); 41 in assay [2] (5 µM FtsZ with ZapD at 1:1); 27 in assay [2] (5 µM FtsZ, no ZapD).
The corresponding values for MFEPMELTNDAVIKVIGVGGGGGNAVEHMVRERIEGVEFFAVNTDAQALRKTAVGQTIQIGSGITKGLGAGANPEVGRNAADEDRDALRAALEGADMVFIAAGMGGGTGTGAAPVVAEVAKDLGILTVAVVTKPFNFEGKKRMAFAEQGITELSKHVDSLITIPNDKLLKVLGRGISLLDAFGAANDVLKGAVQGIAELITRPGLMNVDFADVRTVMSEMGYAMMGSGVASGEDRAEEAAEMAISSPLLEDIDLSGARGVLVNITAGFDLRLDEFETVGNTIRAFASDNATVVIGTSLDPDMNDELRVTVVATGIGMDKRPEITLVTNKQVQQPVMDRYQQHGMAPLTQEQKPVAKVVNDNAPQTAKEPDYLDIPAFLRRQAR [chain 1 K380R D383R] are 39, 50 and 23.
